Source: paper PMC4990988, “Defective recognition of LC3B by mutant SQSTM1/p62 implicates impairment of autophagy as a pathogenic mechanism in ALS-FTLD” (Autophagy, 2016)

Molecular target: LC3B (microtubule-associated protein 1 light chain 3 β) (human, UniProt Q9GZQ8 1-120)
Experiment: ITC; LIR peptide stock (350 µM) injected into LC3B in the cell, 298 K, 25 mM phosphate buffer, 150 mM NaCl, pH 7.5; one-site binding model
Details: both partners purified

Kd [µM] | Binder
3.2 ± 1.1 | SGGDDDWTHLSSKEVDPSTG (source: synthetic peptide (PeptideSynthetics, purity > 98%)) [WT LIR peptide (residues 332 to 351 of human SQSTM1)]
10.9 ± 1.1 | SGGDDDWTHVSSKEVDPSTG (SQSTM1/p62, human, residues 332 to 351 with the ALS-associated L341V mutation; also called L341V-mutant LIR; mutant LIR; source: synthetic peptide (PeptideSynthetics, purity > 98%)) [LIR (L341V) peptide (residues 332 to 351 of human SQSTM1 with L341V)]
